Key:
[1] = molecular target: Kv2.1 R300S (on the hKv2.1-m7-c3 base construct) (human) (UniProt Q14721); assay: cell-based or functional assay
[2] = molecular target: Kv2.1 "wild-type" base construct hKv2.1-m7-c3 (human Kv2.1, residues 1-858, mutated to confer AgTx2 (human) (UniProt Q14721)); assay: cell-based or functional assay

Sequence of AgTx2 (Agitotoxin-2 / agitoxin 2, scorpion toxin) (P46111 whole entry): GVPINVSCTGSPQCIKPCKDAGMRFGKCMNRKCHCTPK

Q: With “AgTx2 (Agitotoxin-2 / agitoxin 2, scorpion toxin) (from UniProt P46111 1-38) (peptide)” as the substance, how does the mean inhibition of the maximal outward (alpha pore) current at +60 mV by 1 nM AgTx2, two-electrode voltage clamp, Xenopus oocytes [1] read?
A: 67.8%

Q: And the mean inhibition of the maximal outward (alpha pore) current at +60 mV by 1 nM AgTx2, two-electrode voltage clamp, Xenopus oocytes [2]?
A: 66.5%
